Results taken from US20200040071A1 (HUB BIOTECH, published 2020).
Where a chain is given by its changes, count along the chain named. Values belong to the binder of their own block, whether it stands above or below them.

Assays:
[1] = target: T1, endothelial monocyte activating polypeptide II (EMAP II) (UniProt Q12904 147-312, limits assumed); experiment: SPR (Reichert SR7500DC), EMAP II protein fixed to a PEG chip (ligand printed on the sheet as hAIMP1), antibody as analyte at 0-40 nM
T1 construct: also called EMAP II antigen; EMAP II protein
T1 sequence (looked up): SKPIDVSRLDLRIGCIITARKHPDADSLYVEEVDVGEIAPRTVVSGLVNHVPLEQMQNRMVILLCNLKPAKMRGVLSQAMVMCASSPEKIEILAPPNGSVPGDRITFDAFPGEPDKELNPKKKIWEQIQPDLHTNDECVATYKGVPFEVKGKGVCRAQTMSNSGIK
Procedure: (§1) A surface plasmon resonance (SPR) method was used to further compare the antigen-binding abilities between BAP015-hum03 and BAP072-EMAP II-1. Reichert SR7500DC system (Reichert Technologies, Depew, N.Y.) was used for SPR, and Scrubber2 software was used for data collection. 2.5 μg of EMAP II protein was fixed to PEG chip (Reichert Technologies), after which BAP015-hum03 and BAP072-EMAP II-1 antibodies were flowed thereinto to compare the binding abilities therebetween.

[2] = target: T1, endothelial monocyte activating …; experiment: SPR, Reichert SR7500DC, EMAP II fixed to PEG chip, antibody flowed
Procedure: as §1

[3] = target: T1, endothelial monocyte activating …; experiment: ELISA, EMAP II coated at 1 ug/ml, anti-IgG-HRP detection, absorbance at 450 nm
Procedure: (§2) Each well of a 96-well plate was coated with 100 μl of EMAP II antigens at a concentration of 1 μg/ml, and incubated at 37° C. for 2 hours. The coated antigens were blocked with 5% BSA and washed with washing buffer solution. […] The resulting ones were washed 3 times with washing buffer solution, then treated with anti-IgG-HRP antibodies, and then incubated for 1 hour. Then, the resulting ones were washed 3 times with washing buffer solution, and treated with a substrate for 30 minutes at room temperature. Color development was performed, after which stop solution was inserted thereinto, such that absorbance was measured at a wavelength of 450 nm to test an antigen-binding ability of the antibodies.

[4] = target: T1, endothelial monocyte activating …; experiment: ELISA, plate coated with EMAP II antigen (1 µg/ml), detection with anti-IgG-HRP, OD 450 nm
Procedure: as §2

concentration of antibodies to reach O.D 2.5 [3]: ≥ 100 ng/mL
B2: BAP072-EMAP II-2 antibody (antibody, V domains shown)
VH: EVQLVQSGAEVKKPGATVKISCKVSGYTFTSYTMHWVRQAPGQGLEWMGYTNPSSGFTNYTQKFKDRVHISADKSISTAYLQWSSLKASDTAWYYCASRFAYWGQG
VL: AIQLTQSPSSLSASVGDRVTITCKASQDVSTAVAWYQQKPGKAPKLLIYSASYRYWGVPSRFSGSGSGTDFTFTISRLEPEDFAVYYCQQHYSIPYTFGQG
notes: also called BAP072-EMAP 11-2

concentration of antibodies to reach O.D 2.5 [3]: ≥ 100 ng/mL
B3: BAP072-EMAP II-3 antibody (antibody, V domains shown)
VH: B2 VH with T51I, S54R, T61R, D66H, H69T, W93M, A97F
VL: B2 VL with R54G, W56T
notes: also called BAP072-EMAP 11-3

concentration of antibodies to reach O.D 2.5 [3]: ≥ 100 ng/mL
B4: BAP072-EMAP II-4 antibody (antibody, V domains shown)
VH: B2 VH
VL: B2 VL with R54G, W56T

Continued, binder first:

B1: BAP015-hum03 antibody (antibody, V domains shown)
VH: B2 VH with T51I, T61N, H69T, W93M
VL: B2 VL with W56T
notes: The printed variable regions end at FGQG (light) and WGQG (heavy), so they seem to stop short of the end of framework 4; also called anti-EMAP II parent antibody; control group
koff [1]: 5.38e-05 s⁻¹
kon [1]: 75900 M⁻¹ s⁻¹
Kd [2]: 0.709 nM

B5: BAP072-EMAP II-1 antibody (antibody, V domains shown)
VH: B2 VH with T51I, S54R, T61R, D66H, H69T, W93M, A97F
VL: B2 VL
EC50 (read off the curve) [4]: ~7 ng/mL
koff [1]: 1.7e-06 s⁻¹
kon [1]: 27000 M⁻¹ s⁻¹
concentration of antibodies to reach O.D 2.5 [3]: ≤ 10 ng/mL
fold antigen-binding ability against the other antibodies (BAP015-hum03, BAP072-EMAP II-2, II-3, II-4) [3]: ~10 fold
Kd [2]: 0.063 nM
fold antigen-binding ability against BAP015-hum03 [2]: ~10 fold
